Literature values in patent US20100028328A1, “TOPICAL TREATMENT FOR DISEASES OF EYE SURFACE” (THERAKINE, LTD., priority 2006, published 2010).

Columns and labels:
[1] = tested on: Herpetic Stromal Keratitis (HSK), Herpes simplex virus infection of the cornea; details: treatment of HSK
[2] = tested on: allogeneic corneal transplants; details: topical treatment

Molecule	influx of cells of the innate and adaptive immune system into the cornea [1]	acceptance of allogeneic corneal transplants [2]	gene expression of chemokines associated with corneal graft rejection (RANTES, macrophage inflammatory protein-1beta) [2]
IL-1 ra: receptor antagonist to IL-1	reduce the influx of cells of the innate and adaptive immune system into the cornea	–	–
TNFR-I: a TNF antagonist; topical soluble tumor necrosis factor receptor type I (protein, UniProt P19438 30-211, looked up, extracellular domain) extracellular domain: LVPHLGDREKRDSVCPQGKYIHPQNNSICCTKCHKGTYLYNDCPGPGQDTDCRECESGSFTASENHLRHCLSCSKCRKEMGQVEISSCTVDRDTVCGCRKNQYRHYWSENLFQCFNCSLCLNGTVHLSCQEKQNTVCTCHAGFFLRENECVSCSNCKKSLECTKLCLPQIENVKGTEDSGTT	–	promoted the acceptance of allogeneic corneal transplants	inhibited gene expression of 2 chemokines
